How the values were obtained:
Assay in all cases: bead-based binding assay (Luminex)
[1] = target: DENV2 NS1 β-ladder-Halotag (residues 178-352) (dengue virus serotype 2)
[2] = target: DENV2 NS1 wing-Halotag (residues 30-174) (dengue virus serotype 2)
[3] = target: T1, DENV2 NS1 (recombinant, biotinylated, on Luminex beads) (dengue virus serotype 2, UniProt P29990 776-1127); conditions: both partners purified
T1 sequence: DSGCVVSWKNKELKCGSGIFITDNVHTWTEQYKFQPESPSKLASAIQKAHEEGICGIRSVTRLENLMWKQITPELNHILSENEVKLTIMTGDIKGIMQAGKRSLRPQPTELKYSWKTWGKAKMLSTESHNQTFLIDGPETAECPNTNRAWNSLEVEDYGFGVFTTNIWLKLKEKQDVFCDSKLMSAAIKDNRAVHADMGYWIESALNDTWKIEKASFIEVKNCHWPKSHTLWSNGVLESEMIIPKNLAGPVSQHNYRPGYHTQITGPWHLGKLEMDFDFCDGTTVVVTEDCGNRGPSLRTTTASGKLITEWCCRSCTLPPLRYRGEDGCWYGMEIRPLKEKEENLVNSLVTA

EFNB1 RBD-Fc fusion protein (from UniProt P98172 28-164)
fold relative binding (EFNB1 Fc over Gluc Fc) [1]: 15 fold | fold relative binding (EFNB1 Fc over Gluc Fc) [2]: 50 fold

B1: EFNB1 RBD-Fc fusion protein (Fc fusion)
chain: LAKNLEPVSWSSLNPKFLSGKGLVIYPKIGDKLDIICPRAEAGRPYEYYKLYLVRPEQAAACSTVLDPNVLVTCNRPEQEIRFTIKFQEFSPNYMGLEFKKHHDYYITSTSNGSLEGLENREGGVCRTRTMKIIMKV
fold binding over the Gluc-Fc negative control [3]: 40 fold
